Test results from patent US20180044434A1 (PUBLIC UNIVERSITY CORPORATION YOKOHAMA CITY UNIVERSITY, published 2018).

B1: G6 (antibody, V domains shown)
VH: AVTLDESGGGLQTPGGALSLVCKASGFTFSSYGMEWVRQAPGKGLEYVAAIRNDGSWTGYGAAVKGRATISRDDGQSTLRLQLNNLRAEDTATYYCAKTTGSSGGSIDAWGHGTEVIVS
VL: ASTQPSSVSANLGETVKITCSGGGNYYYGWYQQKSPGSAPVTLIYANDKRPSNIPSRFSGSKSGSTGTLTITGVQAEDEAVYFCGTADTGKYVFGAGTTLTVL
notes: Chicken variable regions in a mouse chimeric antibody (IgG1); also called anti-PAD4 antibody G6
B2: G8 (antibody, V domains shown)
VH: AVTLDESGGGLQTPGGALSLVCKASGFTFSTYAMGWMRQAPGKGLEYVAAIRNDGSWTGYGAAVKGRATILRDNGQSTVRLQLSNLRAEDTGTYYCAKYTGSSGGSIGAWGHGTEVIVS
VL: ASTQPSSVSANLGGTVEITCSGGNRNYYYGWYQQKSPGSAPVTLIYANDKRPSNIPSRFSGSKSGSTGTLTITGVQAEDEAVYFCGTADTGKYVFGAGTTLTVL
notes: Chicken variable regions in a mouse chimeric antibody (IgG1); also called anti-PAD4 antibody G8
B3: H7 (antibody, V domains shown)
VH: B2 VH
VL: ASTQPSSVSANPGGTVEITCSGGSGRYYYGWYQQKSPGSAPVTVIYSSTHRPSNIPSRFSGSKSGSTATLTITGVQAEDEAVYFCGTADSSSYVFGAGTTLTVL
notes: Chicken variable regions in a mouse chimeric antibody (IgG1); also called anti-PAD4 antibody H7

Target: T1, TA0096 (peptide antigen corresponding to positions 340 to 356 of PAD4)
T1 peptide: EENMDDQWMQDEMEIGY
Experiment: ELISA, coated peptide

Binder	OD 490/630 nm
B1	1.87
B2	1.88
B3	1.82

Target: T2, Ala mutant of TA0096, SEQ ID NO: 27
T2 peptide: AENMDDQWMQDEMEIGY
Experiment: ELISA, coated peptide

Binder	OD 490/630 nm
B1	1.91
B2	1.96
B3	1.9

Target: T3, Ala mutant of TA0096, SEQ ID NO: 29
T3 peptide: EEAMDDQWMQDEMEIGY
Experiment: ELISA, coated peptide

Binder	OD 490/630 nm
B1	1.95
B2	1.91
B3	1.9

Target: T4, Ala mutant of TA0096, SEQ ID NO: 30
T4 peptide: EENADDQWMQDEMEIGY
Experiment: ELISA, coated peptide

Binder	OD 490/630 nm
B1	1.92
B2	1.93
B3	1.95

Target: T5, Ala mutant of TA0096, SEQ ID NO: 31
T5 peptide: EENMADQWMQDEMEIGY
Experiment: ELISA, coated peptide

Binder	OD 490/630 nm
B1	1.77
B2	1.85
B3	0.462

Target: T6, Ala mutant of TA0096, SEQ ID NO: 33
T6 peptide: EENMDDAWMQDEMEIGY
Experiment: ELISA, coated peptide

Binder	OD 490/630 nm
B1	1.98
B2	1.98
B3	1.87

Target: T7, Ala mutant of TA0096, SEQ ID NO: 34
T7 peptide: EENMDDQAMQDEMEIGY
Experiment: ELISA, coated peptide

Binder	OD 490/630 nm
B1	0.042
B2	0.04
B3	0.066

Target: T8, Ala mutant of TA0096, SEQ ID NO: 35
T8 peptide: EENMDDQWAQDEMEIGY
Experiment: ELISA, coated peptide

Binder	OD 490/630 nm
B1	0.015
B2	0.233
B3	0.065

Target: T9, Ala mutant of TA0096, SEQ ID NO: 36
T9 peptide: EENMDDQWMADEMEIGY
Experiment: ELISA, coated peptide

Binder	OD 490/630 nm
B1	1.85
B2	1.92
B3	1.87

Target: T10, Ala mutant of TA0096, SEQ ID NO: 37
T10 peptide: EENMDDQWMQAEMEIGY
Experiment: ELISA, coated peptide

Binder	OD 490/630 nm
B1	1.85
B2	1.88
B3	1.86

Target: T11, Ala mutant of TA0096, SEQ ID NO: 38
T11 peptide: EENMDDQWMQDAMEIGY
Experiment: ELISA, coated peptide

Binder	OD 490/630 nm
B1	1.92
B2	1.91
B3	1.99

Target: T12, Ala mutant of TA0096, SEQ ID NO: 39
T12 peptide: EENMDDQWMQDEAEIGY
Experiment: ELISA, coated peptide

Binder	OD 490/630 nm
B1	1.83
B2	1.88
B3	1.81

Target: T13, Ala mutant of TA0096, SEQ ID NO: 42
T13 peptide: EENMDDQWMQDEMEIAY
Experiment: ELISA, coated peptide

Binder	OD 490/630 nm
B1	1.87
B2	1.86
B3	1.85

Target: T14, Ala mutant of TA0096, SEQ ID NO: 43
T14 peptide: EENMDDQWMQDEMEIGA
Experiment: ELISA, coated peptide

Binder	OD 490/630 nm
B1	1.87
B2	1.92
B3	1.87

Target: T15, Ala mutant having 3-amino acid substitution, SEQ ID NO: 48
T15 peptide: EENMDDQWMQDEAAAGY
Experiment: ELISA, coated peptide

Binder	OD 490/630 nm
B1	1.85
B2	1.88
B3	1.87

Target: T16, Ala mutant having 3-amino acid substitution, SEQ ID NO: 49
T16 peptide: EENMDDQWMQDEMEIAA
Experiment: ELISA, coated peptide

Binder	OD 490/630 nm
B1	1.88
B2	1.86
B3	1.86

These binders were tested against T17, full-length recombinant human PAD4 (human, UniProt Q9UM07 1-663) (assay: ELISA, coated human PAD4; antibody 1 ug/mL).
T17 construct: Full-length recombinant; also called peptidylarginine deiminase 4
T17 sequence (Q9UM07 whole entry): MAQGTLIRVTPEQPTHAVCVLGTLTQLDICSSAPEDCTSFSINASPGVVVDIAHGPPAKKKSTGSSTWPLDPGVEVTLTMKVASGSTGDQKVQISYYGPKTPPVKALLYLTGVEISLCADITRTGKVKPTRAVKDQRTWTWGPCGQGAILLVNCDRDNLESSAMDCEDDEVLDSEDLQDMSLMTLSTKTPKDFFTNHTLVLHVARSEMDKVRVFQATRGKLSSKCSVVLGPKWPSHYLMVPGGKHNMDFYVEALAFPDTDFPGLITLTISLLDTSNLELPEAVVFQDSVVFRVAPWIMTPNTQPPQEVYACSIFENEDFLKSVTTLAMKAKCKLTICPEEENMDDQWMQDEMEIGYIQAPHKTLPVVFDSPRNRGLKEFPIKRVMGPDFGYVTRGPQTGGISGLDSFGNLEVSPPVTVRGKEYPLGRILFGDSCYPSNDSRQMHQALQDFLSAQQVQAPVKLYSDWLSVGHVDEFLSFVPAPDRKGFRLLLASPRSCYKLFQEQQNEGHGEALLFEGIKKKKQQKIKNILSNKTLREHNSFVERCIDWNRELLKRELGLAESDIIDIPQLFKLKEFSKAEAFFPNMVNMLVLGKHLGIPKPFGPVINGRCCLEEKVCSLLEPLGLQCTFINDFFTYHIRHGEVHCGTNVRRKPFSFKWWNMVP

Binder	OD 490/630 nm
B1	2.11
B2	2.12
B3	2.11

These binders were tested against T18, full-length recombinant mouse PAD4 (mouse, UniProt Q9Z183 1-666) (assay: ELISA, coated mouse PAD4; antibody 1 ug/mL).
T18 construct: mature; Full-length recombinant
T18 sequence (Q9Z183 whole entry): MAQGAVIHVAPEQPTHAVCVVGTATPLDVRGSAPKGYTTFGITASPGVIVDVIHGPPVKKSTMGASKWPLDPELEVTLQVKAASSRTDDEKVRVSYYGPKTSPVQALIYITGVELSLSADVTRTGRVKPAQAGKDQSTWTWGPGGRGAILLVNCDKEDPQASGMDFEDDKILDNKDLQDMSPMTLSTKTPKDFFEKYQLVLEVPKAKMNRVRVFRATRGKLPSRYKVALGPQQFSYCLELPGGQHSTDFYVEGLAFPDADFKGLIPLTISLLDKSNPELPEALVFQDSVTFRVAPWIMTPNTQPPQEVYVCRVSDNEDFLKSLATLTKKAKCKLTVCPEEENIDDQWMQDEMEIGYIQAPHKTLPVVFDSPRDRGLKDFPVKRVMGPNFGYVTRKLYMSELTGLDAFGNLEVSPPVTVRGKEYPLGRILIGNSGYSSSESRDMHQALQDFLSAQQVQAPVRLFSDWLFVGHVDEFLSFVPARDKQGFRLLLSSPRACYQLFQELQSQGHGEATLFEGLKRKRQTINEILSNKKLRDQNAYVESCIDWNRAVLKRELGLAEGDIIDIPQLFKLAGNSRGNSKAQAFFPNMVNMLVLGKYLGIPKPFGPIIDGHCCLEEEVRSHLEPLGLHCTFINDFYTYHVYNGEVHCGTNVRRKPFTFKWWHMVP

Binder	OD 490/630 nm
B1	2.27
B2	2.26
B3	2.3

The binders below were run against T17, full-length recombinant human PAD4 (assay: ELISA, coated human PAD4; antibody 0.25 ug/mL).

Binder	OD 490/630 nm
B1	2.07
B2	2.1
B3	2.11

These binders were tested against T18, full-length recombinant mouse PAD4 (assay: ELISA, coated mouse PAD4; antibody 0.25 ug/mL).

Binder	OD 490/630 nm
B1	2.27
B2	2.25
B3	2.31

Each binder was assayed against T17, full-length recombinant human PAD4 (assay: ELISA, coated human PAD4; antibody 0.0625 ug/mL).

Binder	OD 490/630 nm
B1	2.12
B2	2.12
B3	2.12

Each binder was assayed against T18, full-length recombinant mouse PAD4 (assay: ELISA, coated mouse PAD4; antibody 0.0625 ug/mL).

Binder	OD 490/630 nm
B1	2.16
B2	2.22
B3	2.29

These binders were tested against T17, full-length recombinant human PAD4 (assay: ELISA, coated human PAD4; antibody 0.015625 ug/mL).

Binder	OD 490/630 nm
B1	2.01
B2	2.08
B3	2.07

The binders below were run against T18, full-length recombinant mouse PAD4 (assay: ELISA, coated mouse PAD4; antibody 0.015625 ug/mL).

Binder	OD 490/630 nm
B1	1.35
B2	2.25
B3	2.26

The binders below were run against T17, full-length recombinant human PAD4 (assay: ELISA, coated human PAD4; antibody 0.0039063 ug/mL).

Binder	OD 490/630 nm
B1	1.16
B2	1.34
B3	1.35

What follows are binders tested against T17, full-length recombinant human PAD4 (assay: ELISA, coated human PAD4; antibody 6.104E-05 ug/mL).

Binder	OD 490/630 nm
B1	0.075
B2	0.1
B3	0.111

What follows are binders tested against T18, full-length recombinant mouse PAD4 (assay: ELISA, coated mouse PAD4; antibody 0.0002441 ug/mL).

Binder	OD 490/630 nm
B1	0.071
B2	0.205
B3	0.224

Each binder was assayed against T18, full-length recombinant mouse PAD4 (assay: ELISA, coated mouse PAD4; antibody 0.0009766 ug/mL).

Binder	OD 490/630 nm
B1	0.2
B2	0.555
B3	0.55

What follows are binders tested against T18, full-length recombinant mouse PAD4 (assay: ELISA, coated mouse PAD4; antibody 6.104E-05 ug/mL).

Binder	OD 490/630 nm
B1	0.044
B2	0.122
B3	0.103

Each binder was assayed against T17, full-length recombinant human PAD4 (assay: SPR (Biacore T200), antibody captured, human PAD4 analyte).
Description: Biacore (GE Healthcare, Biacore T200) was carried out to evaluate the affinity of A11 etc., toward human PAD4. A Mouse Antibody Capture kit (GE Healthcare, BR-1008-38) was used for the affinity assay. Specifically, in accordance with the standard protocol provided by the manufacture, NHS/EDC was used and an amine coupling method, in which a free carboxyl group is fixed on a surface of a CM5 chip, was used to immobilize a rabbit anti-mouse polyclonal antibody on the surface of a CM5 chip. Next, A11 etc., were each captured by the rabbit anti-mouse polyclonal antibody. L207 was likewise captured. Then, human PAD4 at each concentration was subjected to Biacore T200 measurement to create a kinetic sensorgram.

Binder	Kd	koff	kon
B1	8.74 nM	0.000389 s⁻¹	44500 M⁻¹ s⁻¹
B2	2.34 nM	0.000243 s⁻¹	104000 M⁻¹ s⁻¹
B3	7.56 nM	0.000791 s⁻¹	105000 M⁻¹ s⁻¹
